Here are results for one molecule from US20100021899 (NATIONAL UNIVERSITY CORPORATION TOKYO UNIVERSITY OF …, published 2010).

This data set deals with BSA (bovine serum albumin) (Bos taurus, UniProt P02769 P02769:25-607). Nature of the data set: ELONA; plate assay on immobilized CaDNA-3-11T; no concentration-dependent signal with BSA; PBS-T, room temperature. To be noted: structure-switching stem-loop.
Sequence of BSA (bovine serum albumin) (P02769 25-607, one chain of several): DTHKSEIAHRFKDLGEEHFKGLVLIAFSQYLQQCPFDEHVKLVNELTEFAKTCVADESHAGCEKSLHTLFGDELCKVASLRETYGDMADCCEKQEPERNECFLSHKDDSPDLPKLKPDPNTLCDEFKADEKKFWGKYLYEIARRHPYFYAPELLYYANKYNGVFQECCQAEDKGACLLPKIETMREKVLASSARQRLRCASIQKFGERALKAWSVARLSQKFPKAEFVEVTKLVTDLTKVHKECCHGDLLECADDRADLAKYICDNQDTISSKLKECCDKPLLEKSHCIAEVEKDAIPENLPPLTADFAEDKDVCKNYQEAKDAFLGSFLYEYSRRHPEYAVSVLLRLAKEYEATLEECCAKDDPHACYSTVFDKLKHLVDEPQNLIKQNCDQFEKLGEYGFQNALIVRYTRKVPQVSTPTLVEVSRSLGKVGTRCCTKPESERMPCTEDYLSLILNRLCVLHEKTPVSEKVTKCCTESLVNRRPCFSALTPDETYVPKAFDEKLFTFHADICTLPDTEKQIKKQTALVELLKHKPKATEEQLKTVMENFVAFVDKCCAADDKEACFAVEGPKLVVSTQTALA

B1: CaAp-3 (ssDNA)
DNA: GTTCGGCACTTGGGCCCTTTTCTGTGTCTTTCTGTGCCCTTAGATAGTATGTGCAATCA
As to B1, the binding result is listed as “no binding”.
